Measured values taken from PMC12439581 (mAbs, 2025).
Changes are numbered by the printed parent chain. Names and notes keep the numbering of the source.

How the values were obtained:
[1] = molecular target: T1, biotinylated α-cobratoxin from Naja kaouthia (Naja kaouthia, biotin through amine coupling (NHS-PEG4-Biotin), sites not stated); assay: BLI; settings: both partners purified
T1 chain: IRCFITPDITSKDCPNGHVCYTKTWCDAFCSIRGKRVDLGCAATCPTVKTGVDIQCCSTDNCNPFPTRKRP

[2] = molecular target: T2, biotinylated α-elapitoxin-Dpp2d from Dendroaspis polylepis (Dendroaspis polylepis (black mamba), UniProt C0HJD7); assay: BLI; […]; association at pH 7.4, dissociation at pH 5.5; 1:1 global fit; settings: both partners purified
T2 sequence (C0HJD7 whole entry): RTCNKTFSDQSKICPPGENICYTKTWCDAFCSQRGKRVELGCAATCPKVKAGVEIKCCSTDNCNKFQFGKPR

[3] = molecular target: T3, biotinylated α-bungarotoxin from Bungarus multicinctus (Bungarus multicinctus); assay: as above; settings: both partners purified
[4] = molecular target: T2, biotinylated α-elapitoxin-Dpp2d from …; assay: BLI; […]; association at pH 7.4, dissociation at pH 7.4; 1:1 global fit, […]; settings: both partners purified
[5] = molecular target: T3, biotinylated α-bungarotoxin from …; assay: as above; settings: both partners purified
[6] = molecular target: T4, biotinylated α-elapitoxin-Dpp2d from Dendroaspis polylepis (Dendroaspis polylepis (black mamba), UniProt C0HJD7); assay: DELFIA (dissociation-enhanced lanthanide fluorescence immunoassay); settings: one partner purified
[7] = molecular target: T5, α-bungarotoxin from Bungarus multicinctus (Bungarus multicinctus, UniProt P60615); assay: crystal structure; settings: both partners purified
T5 construct: source: bought: Latoxan L8115, lyophilized purified protein

[8] = molecular target: T4, biotinylated α-elapitoxin-Dpp2d from …; assay: BLI; settings: both partners purified
Target sequence in this assay (C0HJD7 whole entry): as above

[9] = molecular target: biotinylated α-bungarotoxin from Bungarus multicinctus (Bungarus multicinctus, UniProt P60615); assay: BLI; settings: both partners purified
[10] = molecular target: T4, biotinylated α-elapitoxin-Dpp2d from …; assay: BLI; […]; association at pH 7.4, dissociation at pH 7.4; 1:1 model, global fit; […]; settings: both partners purified
Target sequence in this assay (C0HJD7 whole entry): as above

[11] = molecular target: biotinylated α-cobratoxin from Naja kaouthia (Naja kaouthia, UniProt P01391); assay: BLI; settings: both partners purified

T3 sequence (P60615 22-95): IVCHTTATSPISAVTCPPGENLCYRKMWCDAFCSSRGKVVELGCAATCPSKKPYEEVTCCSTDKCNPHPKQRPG
Sequence of biotinylated α-bungarotoxin from Bungarus multicinctus (P60615 22-95): as above
T5 sequence (P60615 22-95): as above

B1: D11 Fab (Fab, V domains shown)
VH: QVQLVQSGAEVKKPGSSVKVSCKASGGTFSSYAISWVRQAPGQGLEWMGGIIPIFGTANYAQKFQGRVTITADESTSTAYMELRSLRSDDTAVYYCARDNLGYCSGGSCYSDYYYYYMDVWGQGTLVTVSS
VL: NFMLTQPRSVSESPGKTVTISCTRSSGSIGSDYVHWYQQRPGSSPTTVIYEDNQRPSGVPDRFSGSIDSSSNSASLTISGLKTEDEADYYCQSYDRSNHEVVFGGGTKLTVL
- Kd [1]: 1.8 ± 0.5 nM
- koff [1]: 0.00029 s⁻¹
- kon [1]: 65000 M⁻¹ s⁻¹
- koff [2]: 0.00041 s⁻¹
- koff [3]: 0.005 s⁻¹
- Kd [4]: 1.4 ± 0.6 nM
- kon [4]: 121000 M⁻¹ s⁻¹
- Kd [5]: 116 ± 19.6 nM
- koff [5]: 0.0047 s⁻¹
- kon [5]: 13000 M⁻¹ s⁻¹

B2: C05 scFv with T31D (CDR-L1) (scFv, V domains shown)
VH: B1 VH
VL: B1 VL with R8H, G30A, S44A, R96S, H99G, E100S
notes: source: E. coli BL21(DE3), in culture supernatant
- binding result [6]: binds

B3: D11 scFv, 6xHis-FLAG removed with TEV protease (construct for crystals) (scFv, V domains shown)
VH: B1 VH
VL: B1 VL
notes: source: E. coli BL21(DE3), purified (HisTrap, TEV cleavage, SEC)
- binding result [7]: binds

B4: A01 Fab (Fab, V domains shown)
VH: B1 VH
VL: SYELTQPPSVSVAPGRTATITCEGDNIGQQIVHWYQQKPGQAPVAVISSDSDRPSGIPERFSGSNSGNTATLTISRVEAGDEADYYCQVWDSGSDHVVFGGGTKVTVL
notes: also called A01 mAb
- koff [8]: 0.0295 s⁻¹
- binding result [9]: binds
- Kd [10]: 2.1 ± 0.1 nM
- koff [10]: 0.00017 s⁻¹

B5: D11 Fab (Fab, V domains shown)
VH: B1 VH
VL: B1 VL
notes: also called D11 mAb
- koff [11]: 0.00012 s⁻¹
- binding result [9]: binds
- koff [10]: 0.00015 s⁻¹
